Test results reported in US20240059788A1 (Kyowa Kirin, published 2024).

Assays:
monkey EpCAM-GST = target: T1, monkey EpCAM-GST (monkey, UniProt Q1WER1 24-265); experiment: phage ELISA on immobilized EpCAM-GST
T1 construct: not shown: GST added to the C terminus (N5 vector)
T1 sequence: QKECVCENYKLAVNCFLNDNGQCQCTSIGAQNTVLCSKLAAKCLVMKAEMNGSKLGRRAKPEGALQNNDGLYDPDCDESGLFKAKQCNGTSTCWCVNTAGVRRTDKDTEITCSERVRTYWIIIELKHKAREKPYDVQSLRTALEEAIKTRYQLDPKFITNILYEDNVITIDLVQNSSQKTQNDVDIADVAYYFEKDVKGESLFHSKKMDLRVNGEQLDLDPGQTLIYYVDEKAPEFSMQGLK

human EpCAM-GST = target: T2, human EpCAM-GST (human, UniProt P16422 24-265); experiment: phage ELISA on immobilized EpCAM-GST
T2 construct: also called soluble human EpCAM antigen; not shown: GST added to the C terminus (N5 vector)
T2 sequence: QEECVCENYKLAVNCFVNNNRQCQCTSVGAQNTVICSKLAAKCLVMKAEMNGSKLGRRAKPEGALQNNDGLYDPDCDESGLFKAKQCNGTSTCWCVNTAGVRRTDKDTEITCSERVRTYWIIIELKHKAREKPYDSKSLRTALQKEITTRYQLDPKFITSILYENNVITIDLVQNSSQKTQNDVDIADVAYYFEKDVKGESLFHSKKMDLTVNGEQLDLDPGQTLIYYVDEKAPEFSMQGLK

mouse EpCAM-GST = target: T3, mouse EpCAM-GST (mouse, UniProt Q99JW5 24-266); experiment: phage ELISA on immobilized EpCAM-GST
T3 construct: not shown: GST added to the C terminus (N5 vector)
T3 sequence: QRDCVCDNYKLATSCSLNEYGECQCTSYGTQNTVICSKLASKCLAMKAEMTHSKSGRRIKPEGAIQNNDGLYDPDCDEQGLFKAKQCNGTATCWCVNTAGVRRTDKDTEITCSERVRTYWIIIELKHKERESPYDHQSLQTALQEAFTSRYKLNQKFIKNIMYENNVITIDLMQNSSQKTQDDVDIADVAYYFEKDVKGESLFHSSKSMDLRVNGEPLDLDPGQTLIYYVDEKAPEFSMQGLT

human CD40-GST = target: T4, human CD40-GST (human, UniProt P25942 21-193); experiment: phage ELISA on immobilized CD40-GST
T4 construct: also called soluble human CD40 antigen; not shown: GST region of the N5 vector
Description: (§1) In the ELISA, MAXISORP (manufactured by NUNC, Inc.) in which the human or monkey CD40-GST in Example 1 was immobilized on each well and a portion to which the human or monkey CD40-GST is not bound was blocked using SuperBlock Blockig Buffer (manufactured by Thermo Fisher, Inc.) was used. To each well, each phage clone was added and reacted at room temperature for 30 minutes, and thereafter, each well was washed 3 times with PBS-T.
(§2) Subsequently, an anti-M13 antibody (manufactured by GE Healthcare, Inc.) labeled with horseradish peroxidase was diluted by 5000 times with PBS-T containing 10% Block Ace (manufactured by Dainippon Pharmaceutical Co., Ltd.), and the resultant was added in an amount of 50 μL to each well, and incubated at room temperature for 30 minutes. After the microplate was washed four times with PBS-T, a TMB chromogenic substrate solution (manufactured by DAKO, Inc.) was added in an amount of 50 μL to each well and incubated at room temperature for 10 minutes.

monkey CD40-GST = target: T5, monkey CD40-GST (monkey, UniProt P25942 21-193 (human entry)); experiment: phage ELISA on immobilized CD40-GST
T5 construct: not shown: GST region of the N5 vector
T5 chain: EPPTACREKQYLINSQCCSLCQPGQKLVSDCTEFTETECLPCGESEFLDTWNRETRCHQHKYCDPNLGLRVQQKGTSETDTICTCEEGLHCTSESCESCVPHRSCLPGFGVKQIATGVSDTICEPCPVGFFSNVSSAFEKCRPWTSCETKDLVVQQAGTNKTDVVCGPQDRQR
Description: as §1, §2

[1] = target: T6, human EpCAM on human EpCAM/HEK 293 cells and Colo 205 cells (human, UniProt P16422 24-314); experiment: flow cytometry on Colo 205 cells and on human EpCAM/HEK 293 cells, detection with goat F(ab')2 anti-human IgG R-PE [B), (D]
T6 construct: Colo 205 cells carry native EpCAM; also called hEpCAM
T6 sequence: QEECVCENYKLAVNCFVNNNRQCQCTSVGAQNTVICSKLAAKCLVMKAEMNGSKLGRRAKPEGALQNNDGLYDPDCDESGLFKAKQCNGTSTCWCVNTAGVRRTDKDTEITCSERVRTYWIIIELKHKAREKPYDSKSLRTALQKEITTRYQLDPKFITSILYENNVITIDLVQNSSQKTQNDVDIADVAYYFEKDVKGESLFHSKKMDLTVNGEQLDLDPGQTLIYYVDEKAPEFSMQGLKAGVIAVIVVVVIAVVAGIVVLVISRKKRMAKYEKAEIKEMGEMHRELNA
Description: (§3) Ramos cells were suspended in Staining Buffer (SB) that is D-PBS(−) containing 0.1% NaN₃ and 1% FBS at a cell density of 1×10⁶ cells/mL, and the suspension was dispensed in a 96-well round bottom plate (manufactured by Falcon, Inc.) at 100 μL/well.
(§4) After further centrifugation (2000 rpm, 4° C., 2 minutes), the supernatant was removed, the resulting pellet was washed three times with 200 μL/well of SB, and thereafter, 1 μg/mL of Goat F(ab′)₂ Anti-Human IgG (γ chain specific) R-phycoerythrin (R-PE) Conjugate (manufactured by Southern Biotech, Inc.) was added at 50 μL/well, and the resultant was incubated for 30 minutes at ice temperature. After washing twice with SB, the cells were suspended in 200 μL/well of SB, and the fluorescence intensity of each cell was measured using a flow cytometer FACSCANTO II (manufactured by Becton, Dickinson and Company).
(§5) Similarly, Colo 205 cells, HEK 293 cells, and human EpCAM/HEK 293 cells were evaluated, respectively. As the negative control, IgG4 antibodies 5228P, L235E, and R409K mutants (hereinafter referred to as anti-DNP antibodies) produced according to the method described in Example 5 of WO 2006/033386 using a vector encoding VL and VH (GenBank accession No. VL U16688, VH U116687) of the 2,4-dinitrophenol (DNP) antibody described in Mol Immunol. 1996 June; 33 (9): 759-68 were used.

mouse CD40 = target: T7, mouse CD40 (mouse, UniProt P27512 20-193, limits assumed); experiment: not described
T7 sequence (looked up): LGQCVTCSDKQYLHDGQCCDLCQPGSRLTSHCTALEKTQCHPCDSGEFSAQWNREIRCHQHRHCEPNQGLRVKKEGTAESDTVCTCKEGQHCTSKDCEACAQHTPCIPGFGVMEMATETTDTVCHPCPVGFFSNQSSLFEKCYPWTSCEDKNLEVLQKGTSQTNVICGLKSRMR

[2] = target: T8, human CD40 on Ramos cells (human, UniProt P25942 21-277); experiment: flow cytometry on Ramos cells, detection with goat F(ab')2 anti-human IgG R-PE [A]
T8 construct: Native CD40 of Ramos cells (Burkitt's lymphoma)
Description: as §3, §4

[3] = target: T6, human EpCAM on human EpCAM/HEK 293 …; experiment: flow cytometry on Colo 205 cells and on human EpCAM/HEK 293 cells, antibody at 10 ug/mL, detection with goat F(ab')2 anti-human IgG R-PE [B), (D]
Description: as §3, §4, §5

Row | Binder | binding result (monkey EpCAM-GST) | binding result (human EpCAM-GST) | binding result (mouse EpCAM-GST) | binding result (human CD40-GST) | binding result (monkey CD40-GST) | also measured
1 | Ep203 phage clone (scFv, V domains shown) VH: EVQLVQSGAEVKKPGASVKVSCKASGFTFSSYYMHWVRQAPGQGLEWMGIVNPTGGATSYAQKFQGRVTMTRDTSTSTVYMELSSLRSEDTAVYYCAKHGYGASTLFDSWGQGTLVTVSS VL: not shown | binds | binds | binds | – | – | –
2 | Epc112 phage clone (scFv, V domains shown) VH: EVQLVQSGTEVKKPGASVKVSCRASGNTFTNYYIHWVRQAPGQGLEWMGIINPSGGATNYAQILQGRVTMTRDTSTSTVYMELSSLRSEDTAVYYCAGGGSAATFAYWGQGTLVTVSS VL: not shown | binds | binds | binds | – | – | –
3 | R2089 phage clone (scFv, V domains shown) VH: EVQLVQSGAEVKKPGASVKVSCKASGYSFTRYIMHWVRQAPGQRLEWMGWINAGNGNTKYSQKFQGRVTITRDTSANTAYMELSSLRSEDTAVYYCARDEPVAGSFFDYWGQGTLVTVSS VL: not shown | – | – | – | binds | binds | –
4 | R1066 phage clone (scFv, V domains shown) VH: QVQLQQWGAGLLKPSETLSLTCAVYGGSFSGYYWSWIRQPPGKGLEWIGEINHGGITHYNPSLKSRVTISVDTSKNQFSLKLSSVTAADTAVYYCARDNYYGSGSYYKYDYYGMDVWGQGTTVTVSS VL: not shown | – | – | – | binds | binds | –
5 | Epc051 phage clone (scFv, V domains shown) VH: EVQLVQSGAEVKKPGASVKVSCKASGYTFTSNYMHWVRQAPGQGLEWMGIINPSGGATSYAQKFQGRVTMTRDTSTSTVYMELSSLRSEDTAVYYCASGGYYGSVIMDVWGQGTLVTVSS VL: not shown | binds | binds | binds | – | – | –
6 | R2178 phage clone (scFv, V domains shown) VH: QVQLQQWGAGLLKPSETLSLTCAVYGGSFSGYYWSWIRQSPGKGLEWIGEINHGGITNYNPSLKSRVTISVDTSKNQFSLKLGSVTAADTAVYYCARDNYYGSGSNDGVYQYYGIDVWGQGTTVTVSS VL: not shown | – | – | – | binds | binds | –
7 | anti-CD40 monoclonal antibody 21.4.1 (antibody, V domains shown, also called anti-CD40 agonistic antibody; CP870,893) VH: not shown VL: DIQMTQSPSSVSASVGDRVTITCRASQGIYSWLAWYQQKPGKAPNLLIYTASTLQSGVPSRFSGSGSGTDFTLTISSLQPEDFATYYCQQANIFPLTFGGGTKVQIK | – | – | – | – | – | binding result [1]: no binding (tested: 10 ug/mL); binding result (mouse CD40): no binding
8 | anti-EpCAM monoclonal antibody 3622W94 (antibody, V domains shown) VH: QVQLVQSGPEVKKPGASVKVSCKASGYTFTNYGMNWVRQAPGQGLEWMGWINTYTGEPTYGEDFKGRFAFSLDTSASTAYMELSSLRSEDTAVYFCARFGNYVDYWGQGSLVTVSS VL: DIVMTQSPLSLPVTPGEPASISCRSSKNLLHSNGITYLYWYLQKPGQSPQLLIYQMSNLASGVPDRFSSSGSGTDFTLKISRVEAEDVGVYYCAQNLEIPRTFGQGTKVEIK | – | – | – | – | – | binding result [2]: no binding (tested: 10 ug/mL); binding result [3]: binds
